{"source": "paper PMC9503767", "about": "“Site-Differentiated Iron–Sulfur Cluster Ligation Affects Flavin-Based Electron Bifurcation Activity” (Metabolites, 2022)", "substrate": "NC(=O)C1=CN([C@@H]2O[C@H](COP(=O)(O)OP(=O)(O)OC[C@H]3O[C@@H](n4cnc5c(N)ncnc54)[C@H](OP(=O)(O)O)[C@@H]3O)[C@@H](O)[C@H]2O)C=CC1", "experiment": "purified protein", "assay_type": "biochemical, Pyrococcus furiosus", "conditions": "FAD; two [4Fe-4S] clusters oxidized by L-FAD", "data": [{"protein": "NfnL (large subunit of NADH-dependent reduced-ferredoxin: NADP+ oxidoreductase NfnSL) (Pyrococcus furiosus DSM 3638) (protein, isolated NfnL-WT subunit) MPRLIKDRVPTPERSVGERVRDFGEVNLGYSWELALREAERCLQCPVEYAPCIKGCPVHINIPGFIKALRENRDNPSKAVREALRIIWRDNTLPAITGRVCPQEEQCEGACVVGKVGDPINIGKLERFVADYAREHGIDDELLLEEIKGIKRNGKKVAIIGAGPAGLTCAADLAKMGYEVTIYEALHQPGGVLIYGIPEFRLPKEIVKKELENLRRLGVKIETNVLVGKTITFEELREEYDAIFIGTGAGTPRIYPWPGVNLNGIYSANEFLTRINLMKAYKFPEYDTPIKVGKRVAVIGGGNTAMDAARSALRLGAEVWILYRRTRKEMTAREEEIKHAEEEGVKFMFLVTPKRFIGDENGNLKAIELEKMKLGEPDESGRRRPIPTGETFIMEFDTAIIAIGQTPNKTFLETVPGLKVDEWGRIVVDENLMTSIPGVFAGGDAIRGEATVILAMGDGRKAAKAIHQYLSKEK", "values": [{"measurement": "Km", "result": "1300 ± 100", "unit": "µM"}, {"measurement": "Vmax", "result": 3000, "unit": "µM/min"}, {"measurement": "kcat", "result": "2.3 ± 0.3", "unit": "s⁻¹"}, {"measurement": "kcat/Km", "result": "1700 ± 300", "unit": "M⁻¹ s⁻¹"}]}]}
